# Assay results: PMC8829827, “Dynamics of Cations around DNA and Protein as Revealed by 23Na Diffusion NMR Spectroscopy”
# Target: Antp homeodomain (C39S) (fruit fly, UniProt P02833 297-356, C335S)
# Assay: 23Na diffusion NMR (Na+ release on complex formation); 1.10 mM protein, 1.52 mM DNA; 14.7 +/- 1.7 Na+ released per complex; sodium succinate buffer (20 mM Na+, 11.3 mM succinate), pH 5.8, 25 C
# Conditions: protein: recombinant; blunt
# Chain of Antp homeodomain (C39S) (P02833 297-356 C335S): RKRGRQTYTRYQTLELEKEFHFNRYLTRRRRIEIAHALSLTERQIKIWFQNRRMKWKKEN
binder,measurement,value
15-bp DNA duplex with Antp recognition sequence (dsDNA) DNA 1: AGAAAGCCATTAGAG DNA 2: CTCTAATGGCTTTCT,binding result,binds
